The record followed here is patent US6867003.

The test deals with insulin receptor partially purified from CHO-IR cells (Chinese Hamster Ovary cells expressing high levels of insulin receptors of human origin) (human) (UniProt P06213). The test is described as follows: cell-based or functional assay.

GST-PIR+SH2 of rGrb14, sequence (O88900 353-538): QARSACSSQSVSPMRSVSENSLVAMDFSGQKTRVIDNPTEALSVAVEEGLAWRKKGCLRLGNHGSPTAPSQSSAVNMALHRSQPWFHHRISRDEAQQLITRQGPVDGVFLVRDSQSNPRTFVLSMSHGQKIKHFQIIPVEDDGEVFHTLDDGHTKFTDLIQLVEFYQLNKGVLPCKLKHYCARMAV
GST-rGrb14, sequence (O88900 whole entry): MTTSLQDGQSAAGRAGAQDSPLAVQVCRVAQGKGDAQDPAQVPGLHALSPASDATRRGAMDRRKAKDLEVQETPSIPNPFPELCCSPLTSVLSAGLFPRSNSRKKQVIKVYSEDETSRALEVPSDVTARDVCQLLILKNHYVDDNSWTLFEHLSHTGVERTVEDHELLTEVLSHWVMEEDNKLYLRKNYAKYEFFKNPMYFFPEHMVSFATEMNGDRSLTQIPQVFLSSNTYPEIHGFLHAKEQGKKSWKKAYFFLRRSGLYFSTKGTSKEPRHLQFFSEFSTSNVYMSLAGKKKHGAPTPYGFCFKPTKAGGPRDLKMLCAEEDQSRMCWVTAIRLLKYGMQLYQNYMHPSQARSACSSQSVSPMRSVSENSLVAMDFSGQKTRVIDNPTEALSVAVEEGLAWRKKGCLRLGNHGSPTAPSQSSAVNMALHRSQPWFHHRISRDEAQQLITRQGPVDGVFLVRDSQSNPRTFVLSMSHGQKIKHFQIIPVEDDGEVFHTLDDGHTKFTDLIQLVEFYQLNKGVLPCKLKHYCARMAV

Regarding “GST-PIR+SH2 of rGrb14 (from UniProt O88900 353-538)”, the amount giving the maximum inhibitory effect on the tyrosine kinase activity of the insulin receptors amounted to 0.03 µg. Consider GST-rGrb14 (from UniProt O88900 1-538), for which the amount giving 50% inhibition of the tyrosine kinase activity of the receptors (32P incorporation into poly Glu-Tyr) is 0.04 µg.

GST-rGrb7 (from UniProt Q9QZC5 1-535) registered a maximum inhibition of the tyrosine kinase activity of the insulin receptors of 40%. “GST-PIR of rGrb14 (from UniProt O88900 353-436)” yielded an amount giving total inhibition of the tyrosine kinase activity of the insulin receptors of 0.3 µg.
